Source: EP4610277A1 (Daiichi Sankyo Company, Limited, dated 2025)

B1: membrane-type a3DL1-DS6 scFv (scFv)
scFv: DYKDDDDKGSGQMQLVQSGAEVKKPGESLKISCKGSGYSFTSYWIGWVRQMPGKGPEWMGIIYPGDSYTNYSPSFQGHVTISADKSISTAYLQWSSLKASDTAMYYCARLAPTVEDAFDIWGQGTLVTVSSGGGGSGGGGSGGGGSQSVLTQPPSVSEAPGQRVTISCTGSSSNIGAGYDVHWYQQLPGTAPKLLIYGNSNRPSGVPDRFSGSKSGTSASLAITGLQAEDEADYYCQSYDSSLSEEVFGTGTKVTVLALSNSIMYFSHFVPVFLPAKPTTTPAPRPPTPAPTIASQPLSLRPEACRPAAGGAVHTRGLDFACDIYIWAPLAGTCGVLLLSLVITLYCNH
notes: On K562 cells
B2: Fab fragment of a2DL2/3-DS10 (Fab, V domains shown)
VH: QVQLVQSGAEVKKPGSSVKVSCKASGGTFSSFAISWVRQAPGQGLEWMGGIIPIFGTANYAQKFQGRVTITADESTSTAYMELSSLRSEDTAVYYCARVSGTTGGYYYGMDVWGQGTLVTVSS
VL: AIRMTQSPSSVSASVGDRVTITCRASQGIGNWLAWYQQKPGRAPKLLISTASSLQSGVPSRFSGGGSGRGFTLTISSLQLEDFATYYCQQSYITPWTFGQGTKVEIKV
notes: Signal peptides left out; also called a2DL2/3-DS10 Fab; 61_3092_02_F10_Fab

Key:
[1] = target: T1, recombinant KIR3DL1 (extracellular domain-Fc-Avi, in-house) (human); test: flow cytometry, KIR-Fc 0.1 µM on scFv-K562 cells
T1 construct: IL-2 signal peptide left out; also called soluble KIR3DL1

[2] = target: T2, recombinant human KIR3DS1/CD158e2 Fc chimera protein (4136-KR-050, R&D Systems) (human, UniProt Q14943 22-340, limits assumed); test: flow cytometry, KIR-Fc on scFv-K562 cells
T2 construct: Bought Fc chimera; also called soluble KIR3DS1; recombinant KIR3DS1

[3] = target: T3, KIR2DL2 (22-225)-His, deglycosylated (human, UniProt P43627 22-225); test: size exclusion chromatography of the mixed proteins; complex then crystallised
T3 construct: IL-2 signal peptide left out; treated with Protein Deglycosylation Mix II; also called recombinant KIR2DL2
T3 sequence (P43627 other isoform, or with tags, fused parts or gaps): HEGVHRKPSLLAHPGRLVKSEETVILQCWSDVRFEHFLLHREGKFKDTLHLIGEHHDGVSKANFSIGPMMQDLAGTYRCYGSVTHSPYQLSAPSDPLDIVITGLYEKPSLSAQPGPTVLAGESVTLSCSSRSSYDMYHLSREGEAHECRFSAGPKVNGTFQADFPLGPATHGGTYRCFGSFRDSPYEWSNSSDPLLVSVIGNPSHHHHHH

T2 sequence (Q14943 22-340 limits assumed, change not shown): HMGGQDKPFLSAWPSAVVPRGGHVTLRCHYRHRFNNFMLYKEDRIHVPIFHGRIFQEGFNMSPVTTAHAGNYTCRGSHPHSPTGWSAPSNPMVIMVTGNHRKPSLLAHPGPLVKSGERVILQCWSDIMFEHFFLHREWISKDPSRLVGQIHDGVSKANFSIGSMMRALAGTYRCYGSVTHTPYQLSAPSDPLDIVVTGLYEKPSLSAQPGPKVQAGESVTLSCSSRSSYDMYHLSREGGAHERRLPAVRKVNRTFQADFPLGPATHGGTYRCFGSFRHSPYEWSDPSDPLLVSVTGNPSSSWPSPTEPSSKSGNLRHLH
T1 sequence (chain, as listed by the source): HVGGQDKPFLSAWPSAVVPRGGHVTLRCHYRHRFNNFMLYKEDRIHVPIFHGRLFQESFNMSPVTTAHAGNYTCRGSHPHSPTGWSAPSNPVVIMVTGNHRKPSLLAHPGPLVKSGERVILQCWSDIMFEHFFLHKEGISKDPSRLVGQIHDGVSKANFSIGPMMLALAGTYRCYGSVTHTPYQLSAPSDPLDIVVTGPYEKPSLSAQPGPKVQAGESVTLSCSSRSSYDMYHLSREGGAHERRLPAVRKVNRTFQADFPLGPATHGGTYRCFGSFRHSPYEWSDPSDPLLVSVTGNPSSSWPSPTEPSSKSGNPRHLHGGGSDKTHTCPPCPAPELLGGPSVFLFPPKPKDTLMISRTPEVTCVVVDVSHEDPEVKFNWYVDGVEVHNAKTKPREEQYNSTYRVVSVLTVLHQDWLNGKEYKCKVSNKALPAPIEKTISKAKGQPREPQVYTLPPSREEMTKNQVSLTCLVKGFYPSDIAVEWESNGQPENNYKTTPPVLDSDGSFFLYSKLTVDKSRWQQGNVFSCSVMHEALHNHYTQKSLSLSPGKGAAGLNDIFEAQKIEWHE

| Binder | binding result [1] | binding result [2] | binding result [3] |
| --- | --- | --- | --- |
| B1 | binds | no binding (tested: 0.1 µM) | – |
| B2 | – | – | binds |
